Consider four molecules from patent US20250282887A1 (Amgen, published 2025).

Test [1] has as its target T1, Human MAGEB2 (Melanoma-associated antigen B2) (human, UniProt O15479 1-319).
T1 construct: Intracellular antigen detected by IHC in FFPE material: CHO cells transfected with human MAGEB2 (mCherry vector with Myc/DDK tags, or ORF without tags)
T1 sequence: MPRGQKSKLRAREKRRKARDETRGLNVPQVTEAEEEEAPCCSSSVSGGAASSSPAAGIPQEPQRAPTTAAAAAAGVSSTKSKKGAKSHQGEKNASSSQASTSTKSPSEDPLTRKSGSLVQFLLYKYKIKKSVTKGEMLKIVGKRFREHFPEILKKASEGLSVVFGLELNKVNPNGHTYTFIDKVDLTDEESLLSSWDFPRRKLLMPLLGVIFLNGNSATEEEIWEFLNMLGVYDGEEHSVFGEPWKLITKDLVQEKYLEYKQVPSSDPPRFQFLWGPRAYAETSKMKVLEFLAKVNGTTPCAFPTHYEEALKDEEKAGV
The test is described as follows: IHC on FFPE NCI-H1703 cells (endogenous MAGEB2). As to the method:
(§1) FFPE samples were sectioned at 4 μm and mounted on positive charged glass slides. After mounting, paraffin sections were air-dried at room temperature. FFPE TMA samples were received as freshly sectioned and mounted on glass slides. The fully automated IHC assay was performed on a Discovery Ultra Stainer (Ventana Medical Systems, Tucson, AZ) using Ventana Anti-Rabbit HQ (cat #760-4815), Ventana Anti-HQ HRP (cat #760-4820), and Ventana Antibody Diluent with Casein (cat #760-219) (Ventana Medical Systems, Tucson, AZ). The slides were baked on the Discovery Ultra Stainer at 60° C. for 8 minutes, de-paraffinized with Ventana Discovery wash (cat #950-510) for 3 cycles (8 minutes each) at 69° C., and underwent cell conditioning (target retrieval) at 95° C. for 16 minutes (for cell arrays) or 32 minutes (tissues or TMAs) in CC1 buffer (cat #950-500). Following this, slides were incubated with Background Sniper (cat #BS966M, Biocare Medical, Pacheco, CA) in a Ventana Option Prep kit (cat #771-751) for 28 minutes, incubated with CM inhibitor (a part of the Ventana DAB kit cat #760-159) for 12 minutes, and incubated for 1 h at RT with MAGE-B2 antibody diluted with Ventana diluent with Casein in a Ventana Prep kit (cat #770-001) (working concentration at 0.1 μg/ml for cell pellet, or 1-5 ug/ml for tissues) or with a matched concentration of isotype control Rabbit IgG1 antibody. Following this, slides were incubated with the Ventana Anti-Rabbit HQ (cat #760-4815) for 28 minutes at RT, Ventana Anti-HQ HRP (cat #760-4820) for 28 minutes at RT, and signals detected with Ventana DAB chromogen kit (cat #760-159) for 5 minutes at RT. Slides were counterstained with Ventana Hematoxylin II (cat #5266726001) for 8 minutes and Ventana Bluing reagent (cat #526676900) for 4 minutes. Slides were coverslipped and digitized using an Aperio AT2 scanner (Leica Biosystems Inc, Buffalo Grove, IL).

In test [2] the target is T1, Human MAGEB2 (Melanoma-associated …). The test is described as follows: IHC on FFPE U266B1 cells (endogenous MAGEB2). As to the method:
as §1

B1: 1I14 (antibody, V domains shown)
VH: QSVEESGGRLVTPGTPLTLTCTISGFSLSSYAMSWVRQAPGKGLEWIGSIGGGGSAVYASWAKGRFTISKTSTTVDLRITSPTTEDTAMYFCGRGFYSIDLWGPGTLVTVSS
VL: DVVMTQTPASVEATVGGTVTIKCQSSQSVYDNNALAWYQQNAGQRPRLLIYGASTLASGVPSRFSASGSGTEFTLTISDLECADAATYYCQCTYYVSSYQNDFGGGTEVVVKG
notes: also called MAGE-B2 (1i14)
Regarding B1, the “IHC % Frequency” value in test [1] is 0%. Besides, in test [2], the “IHC % Frequency” value stood at 90% and the “IHC Intensity” value was found to be 3.

B2: 1C3 (antibody, V domains shown)
VH: QSLEESGGGLVQPEGSLTLTCTAFGVTLTNYYICWVRQAPGKGLEWVGCIDNANGRTYYASWAKGRFTISKTSSTTGTLQMTSLTAADTATYFCARSLATPLWGPGTLVTVSS
VL: DIVMTQTPSSVEAAVGGTVTIKCQASQNISSYLAWYQQKPGQPPKLLIYRASTLASGVPSRFKGSGSGTQFTLTISDLECADAATYYCQSYDDSRSSNFFYAFGGGTEVVVKG
notes: also called MAGE-B2 (IC3); anti-MAGEB2 antibody 1C3
B2: the “IHC % Frequency” value in test [1] was 0%. In test [2], the “IHC % Frequency” value was 90% and the “IHC Intensity” value was 2.

B3: 4G17 (antibody, IgG1, V domains shown)
VH: QSLEESGGGLVQPEGSLTLTCTASGVTLSNYYICWVRQAPGKGLEWIGCIDNVNGRTYYASWAKGRFTISKTSSTTGTLQMTSLTAADTATYFCARSLATPLWGPGTLVTVSS
VL: DIVMTQTPASVEAAVGGTVTIKCQASQNIDSYLAWYQQKPGQPPKLLIYRASTLASGVPSRFKGSGSGTEFTLTISDLECADAATYYCQSYDDSRSSSFFYGFGGGTEVVVK
notes: Rabbit monoclonal IgG1; Tested as supernatant and as small batch purified antibody; also called MAGE-B2 (4G17); anti-MAGEB2 antibody 4G17
Consider B3, for which, in test [1], the “IHC % Frequency” value is 0% and the “IHC Intensity” value was 0. In addition, in test [2], the “IHC % Frequency” value came out at 80% and the “IHC Intensity” value is 2.

B4: 1J15 (antibody, IgG1, V domains shown)
VH: QSLEESGGGLVQPEGSLTLTCTAFGFTLNNYYICWVRQAPGKGLEWIACIDNANGRTYYASWAKGRFTISKTSSTTVTLQMTSLTAADTATYFCARSLSTPLWGPGTLVTVSS
VL: DIVMTQTPASVEAAVGGTVTIKCQASQSISSYLSWYQQKPGQPPKLLIYRASTLASGVPSRFRGSGSGTQFTLTISDLECADAATYYCQSYDDSSDNNFFYGFGGGTEVVVR
notes: Rabbit monoclonal IgG1; Tested as supernatant and as small batch purified antibody; also called MAGE-B2 (IJ15); anti-MAGEB2 antibody 1J15
For the molecule B4, the “IHC % Frequency” value in test [1] was found to be 0%. Also, in test [2], the “IHC % Frequency” value is 90% and the “IHC Intensity” value was 1.
